Reference: patent US11905559B2, “Materials and methods for controlling gene expression” (priority 2016, dated 2024)
“And” between values parts separate entries of the source, which are not always exact repeats. Equal values may be shown once.

Tests used:
[1] = Isothermal titration calorimetry (ITC); assay type: binding; details: 30° C., 50 mM K^+ Hepes pH 7.5, 100 mM KCl, 10 mM MgCl2, read-out: KD for guanine
Method in brief: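 Guanine (10 μM, syringe) titrated into in vitro transcribed, PAGE-purified G-aptamer or mutant RNA (1 μM, cell) in 50 mM K+ Hepes pH 7.5, 100 mM KCl, 10 mM MgCl2 at 30 °C; 16 × 2.5 μl injections, 120 s apart. Single-site fit gave KA, n, ΔH; KD and ΔG derived; mean ± SD of three experiments.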

[2] = Constant-force (CF) single-molecule optical tweezers folding assay of guanine-aptamer RNAs in guanine buffer; assay type: physicochemical; details: 3 mM Mg^2+; for Folding rate kf / Transition distance ΔX / Unfolding rate ku / ΔG (0): 1 uM G; for ΔG (0): zero force
Method in brief: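 Single RNA aptamer tethered between beads via ~550 nt handles in dual-beam optical tweezers (trap stiffness 0.04-0.06 pN/nm), held at preset force (±0.15 pN) under feedback, extension recorded at 4-40 kHz. 25±0.5 °C; 10 mM Tris-HCl pH 7.5, 250 mM NaCl, 3 mM MgCl2 plus guanine; some mutants 5 mM Mg2+.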

[3] = transition BA (P1 folding), F 8.0 pN
[4] = transition C′B (L2-L3 folding), F 8.0 pN
[5] = transition DC (P3 folding), F 12.0 pN
[6] = transition ED (P2 folding), F 13.5 pN

B1: m7: m7 mutant guanine sensing aptamer RNA (SEQ ID NO: 8); U25C in J1/2 (nucleic acid)
chain: CACUCAUAUAACCGCGUGGAUAUGGCACGCAAGUUUCUACCGGGCACCGUAAAUGUCCGACUAUGGGUG
modifications: RNA, backbone and methylation of C not given here
With B1 the Kd [1] was 16.9 ± 1 nM, the “Equilibrium force F^eq” value ([2]; transition BA (P1 folding), 1 uM G (rates at 8.0 pN)) was 7.4 ± 0.2 pN and the Folding rate kf [2, 3] was 0.5 ± 0.08 s⁻¹. The “Transition distance ΔX” value [2, 3] was 9.6 ± 0.3 nm, the Unfolding rate ku [2, 3] was 1.7 ± 0.4 s⁻¹ and the “ΔG (0)” value ([2]; transition BA (P1 folding), from data at 8.0 pN) was −11.8 kBT and −11.8 ± 0.6 kBT. For the same molecule, the “Equilibrium force F^eq” value ([2]; transition C′B (L2-L3 folding), 1 uM G (rates at 8.0 pN)) was 8.1 ± 0.4 pN, the Folding rate kf [2, 4] was 0.9 ± 0.2 s⁻¹ and the “Transition distance ΔX” value [2, 4] was 3.5 ± 0.2 nm. For the same molecule, the Unfolding rate ku [2, 4] was 1.2 ± 0.2 s⁻¹, the “ΔG (0)” value ([2]; transition C′B (L2-L3 folding), from data at 8.0 pN) was −6.5 kBT and −6.5 ± 0.5 kBT and the “Equilibrium force F^eq” value ([2]; transition DC (P3 folding), 1 uM G (rates at 12.0 pN)) was 11.8 ± 0.05 pN. The Folding rate kf [2, 5] was 16.6 ± 0.5 s⁻¹, the “Transition distance ΔX” value [2, 5] was 7.6 ± 0.2 nm and the Unfolding rate ku [2, 5] was 28.3 ± 1.0 s⁻¹. The “ΔG (0)” value ([2]; transition DC (P3 folding), from data at 12.0 pN) was −14.8 ± 0.6 kBT, the “Equilibrium force F^eq” value ([2]; transition ED (P2 folding), 1 uM G (rates at 13.5 pN)) was 13.3 ± 0.05 pN and the Folding rate kf [2, 6] was 10.0 ± 0.3 s⁻¹. The “Transition distance ΔX” value [2, 6] was 7.1 ± 0.3 nm, the Unfolding rate ku [2, 6] was 20.1 ± 0.5 s⁻¹ and the “ΔG (0)” value ([2]; transition ED (P2 folding), from data at 13.5 pN) was −15.8 ± 1.0 kBT.
